The target in assay [1] is T1, human ROR1 expressed on the cell surface (human, UniProt Q01973 30-937).
T1 construct: whole, on cells; also called cell surface-expressed ROR1 antigen; ROR1 on JeKo-1, Mino, CHO-human ROR1, MC38-human ROR1 and other cancer cell lines
Briefly: flow cytometry on MCF7 cells (breast cancer; the text calls MCF7 a cell line which does not express ROR1), C2E3 IgG, FITC anti-human Fc detection. Here is the method: (§1) FACS analysis (FACSCalibur, BD Biosciences) was used to analyze the binding of the anti-ROR1 antibody of the present invention to ROR1 in the above cell lines.
(§2) Specifically, the respective cell lines were dissociated and washed in PBS, then the numbers of cells were counted and adjusted to 2×10⁵ cells/200 PBS. Then, they were treated with 10 /mL of the antibody of clone name C2E3 of the ROR1 monoclonal antibodies prepared in Embodiment 3, and reacted for 1 hour at 4° C. After the reaction, the cells were washed in PBS, then FITC-marked constant region (Fc) specific antibody (Goat anti-human IgG FITC conjugate, Fc specific, Sigma, F9512, concentration 20 mg/ml) was suspended in 2 /1×10⁵ cells/200 PBS and reacted for 1 hour at 4° C. After reacting, the cells were washed with PBS and analyzed with the FACSCalibur equipment. The negative control was only treated with FITC-marked constant region (Fc) specific antibody. To compare the degree of ROR1 expression among the respective cancer cell lines, the quotient of dividing the shifted readings for the experimental group treated with the ROR1 monoclonal antibody (C2E3) of the present invention by the shifted readings for the control group (MFI Ratio: MFI of anti-ROR1/MFI or 2nd Ab) is indicated.
(In general: Flow cytometry measures light scatter and fluorescence of single cells or particles in a stream.)

For assay [2], the target named is T1, human ROR1 expressed on the cell surface. Description: flow cytometry on AGS cells (gastric cancer), C2E3 IgG, FITC anti-human Fc detection. Here is the method:
as §1, §2

The target is the same in assay [3]. Briefly: flow cytometry on Mino cells (MCL), C2E3 IgG, FITC anti-human Fc detection. As for the experimental part: as §1, §2
Assay [4] shares this target. Description: flow cytometry on Jurkat cells (T cell leukemia), C2E3 IgG, FITC anti-human Fc detection. Here is the method:
as §1, §2

Assay [5] shares this target. Description: flow cytometry on MKN-28 cells (gastric cancer), C2E3 IgG, FITC anti-human Fc detection. Here is the method:
as §1, §2

The target is the same in assay [6]. Briefly: flow cytometry on Kasumi-2 cells (ALL), C2E3 IgG, FITC anti-human Fc detection. As for the experimental part: as §1, §2
Assay [7] shares this target. Briefly: flow cytometry on MDA-MB-468 cells (breast cancer), C2E3 IgG, FITC anti-human Fc detection. Here is the method:
as §1, §2

Assay [8] has the same target. Description: flow cytometry on HCC1806 cells (breast cancer), C2E3 IgG, FITC anti-human Fc detection. Here is the method:
as §1, §2

For assay [9] the target is unchanged. Description: flow cytometry on SNU-16 cells (gastric cancer), C2E3 IgG, FITC anti-human Fc detection. Here is the method:
as §1, §2

Assay [10] shares this target. Briefly: flow cytometry on MC38-human ROR1 cells, IgG titrated, FITC anti-human Fc detection, MFI ratio to 2nd Ab alone; log axis whose first tick is printed 0. An excerpt:
For this experiment, using cell lines (FIG. 5 and FIG. 7, respectively) transiently (CHO-human ROR1, CHO-human ROR2, CHO-mouse ROR1) or stably (MC38-human ROR1) transfected with ROR1 gene to achieve artificial over-expression of ROR1 protein, an ROR1-expressing cell line (JeKo-1, Mino) (FIG. 6), a non ROR1-expressing cell line (MCF7) (FIG. 6) and a FACSCalibur (BD Biosciences) device was used to measure the degree to which anti-ROR1 antibody and ROR1 were bound, as follows. […] JeKo-1, Mino, CHO-human ROR1, CHO-mouse ROR1 and MC38-human ROR1 are all cell lines which express human ROR1 or mouse ROR1.
Specifically, after dissociating each cell line and washing in PBS, the number of cells was counted and adjusted to 2×10⁵ cells/200 PBS. Then the respective ROR1 monoclonal antibodies prepared in Embodiment 3 were diluted 5 times from 10 /mL or 10 /mL, then reacted for 1 hour at 4° C. After the reaction, the cells were washed in PBS, then FITC-marked constant region (Fc) specific antibody (Goat anti-human IgG FITC conjugate, Fc specific, Sigma, F9512, concentration 20 mg/ml) was suspended in 2 /1×10⁵ cells/200 PBS and reacted for 1 hour at 4° C. As for identification of the degree of expression of the transiently over-expressed human ROR1, human ROR2 and mouse ROR1, a commercially available FACS analysis antibody (anti-ROR1: R&D Systems, FAB 2000G, anti-ROR2: R&D, FAB20641P) was used. After reacting the cells were washed in PBS and analyzed using a FACSCalibur device. The negative control (2nd Ab) was only treated with FITC-marked constant region (Fc) specific antibody. The shifted readings for the respective experimental groups treated with ROR1 monoclonal antibody were compared against the shifted reading for the control group (MFI Ratio: MFI of anti-ROR1/MFI of 2nd Ab).

For assay [11] the target is unchanged. Description: flow cytometry on BT20 cells (breast cancer), C2E3 IgG, FITC anti-human Fc detection. Here is the method: as §1, §2

T1 sequence (Q01973 30-937): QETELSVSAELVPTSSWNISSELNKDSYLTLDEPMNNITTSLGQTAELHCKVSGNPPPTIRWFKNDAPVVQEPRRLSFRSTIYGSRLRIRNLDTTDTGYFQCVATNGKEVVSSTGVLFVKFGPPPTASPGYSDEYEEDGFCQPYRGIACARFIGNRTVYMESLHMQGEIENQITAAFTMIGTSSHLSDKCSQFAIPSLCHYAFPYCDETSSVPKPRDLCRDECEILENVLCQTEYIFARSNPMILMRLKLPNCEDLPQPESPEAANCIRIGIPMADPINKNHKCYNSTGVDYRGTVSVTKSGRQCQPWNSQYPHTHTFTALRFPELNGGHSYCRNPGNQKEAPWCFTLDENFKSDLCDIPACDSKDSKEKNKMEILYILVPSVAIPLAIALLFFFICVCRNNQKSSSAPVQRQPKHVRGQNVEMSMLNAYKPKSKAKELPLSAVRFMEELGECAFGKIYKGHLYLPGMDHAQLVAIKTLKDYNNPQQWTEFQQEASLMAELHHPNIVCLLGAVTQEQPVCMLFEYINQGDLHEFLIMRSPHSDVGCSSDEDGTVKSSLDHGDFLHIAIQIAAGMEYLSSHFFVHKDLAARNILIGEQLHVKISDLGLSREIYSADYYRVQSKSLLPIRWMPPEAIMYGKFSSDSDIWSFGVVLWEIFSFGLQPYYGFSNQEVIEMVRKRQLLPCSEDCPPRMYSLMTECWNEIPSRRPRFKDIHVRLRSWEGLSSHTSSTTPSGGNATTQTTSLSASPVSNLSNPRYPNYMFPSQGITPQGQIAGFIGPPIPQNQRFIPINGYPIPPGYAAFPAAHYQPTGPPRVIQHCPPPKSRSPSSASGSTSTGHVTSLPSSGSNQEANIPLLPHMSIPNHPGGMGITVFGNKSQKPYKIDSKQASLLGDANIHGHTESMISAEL

B1: anti-ROR1 IgG antibody C2E3 (antibody, V domains shown)
VH: EVQLLESGGGLVQPGGSLRLSCAASGFTFSNYAMSWVRQAPGKGLEWVSSISHNSGSTYYADSVKGRFTISRDNSKNTLYLQMNSLRAEDTAVYYCAKFISARKSLGRSYSNGMDVWGQGTLVTVSS
VL: QSVLTQPPSASGTPGQRVTISCTGSSSNIGSNDVTWYQQLPGTAPKLLIYADSKRPSGVPDRFSGSKSGTSASLAISGLRSEDEADYYCGTWDYSLSGYVFGGGTKLTVLG
notes: Full IgG form (human IgG1 constant region, lambda light chain), expressed in CHO-S cells
Broadly, the EC50 (read off the curve) is the concentration that produces a half-maximal response. As to B1, the “Mean Fold Ratio (MFI of anti-ROR1 / MFI of 2nd Ab)” value in [1] was 1.1; in assay [2] it was 12.3; in assay [3] it was 7.2; in assay [4], 1.7; in assay [5], 4.9; in assay [6], 11.5. For the same molecule, the “Mean Fold Ratio (MFI of anti-ROR1 / MFI of 2nd Ab)” value was determined as 6.4 in assay [7], 2.3 in assay [8], 2.4 in assay [9] and 3 in assay [11]. The half-maximal effective concentration (EC50 (read off the curve)) in assay [10] was roughly 0.1 µg/mL.
